Results published in the DeepSol protein solubility set.

assay: soluble on expression in E. coli; label from the status in PepcDB or PDB records

Row | Sequence | soluble on expression in E. coli
1 | MGSSHHHHHHSSGLVPRGSHMASKSFQLLEPYNIKANLRPYQIKGFSWMRFMNKLGFGICLADDMGLGKTLQTIAVFSDAKKENELTPSLVICPLSVLKNWEEELSKFAPHLRFAVFHEDRSKIKLEDYDIILTTYAVLLRDTRLKEVEWKYIVIDEAQNIKNPQTKIFKAVKELKSKYRIALTGTPIENKVDDLWSIMTFLNPGLLGSYSEFKSKFATPIKKGDNMAKEELKAIISPFILRRTKYDKAIINDLPDKIETNVYCNLTPEQAAMYKAEVENLFNNIDSVTGIKRKGMILSTLLKLKQIVDHPALLKGGEQSVRRSGKMIRTMEIIEEALDEGDKIAIFTQFVDMGKIIRNIIEKELNTEVPFLYGELSKKERDDIISKFQNNPSVKFIVLSVKAGGFGINLTSANRVIHFDRWWNPAVEDQATDRVYRIGQTRNVIVHKLISVGTLEEKIDQLLAFKRSLFKDIISSGDSWITELSTEELRKVIELSVGGY | soluble
2 | MGSSHHHHHHSSGLVPRGSHMDLSAASHRIPLSDGNSIPIIGLGTYSEPKSTPKGACATSVKVAIDTGYRHIDGAYIYQNEHEVGEAIREKIAEGKVRREDIFYCGKLWATNHVPEMVRPTLERTLRVLQLDYVDLYIIEVPMAFKPGDEIYPRDENGKWLYHKSNLCATWEAMEACKDAGLVKSLGVSNFNRRQLELILNKPGLKHKPVSNQVECHPYFTQPKLLKFCQQHDIVITAYSPLGTSRNPIWVNVSSPPLLKDALLNSLGKRYNKTAAQIVLRFNIQRGVVVIPKSFNLERIKENFQIFDFSLTEEEMKDIEALNKNVRFVELLMWRDHPEYPFHDEY | soluble
3 | MGSSHHHHHHSSGLVPRGSHMFTTKLAEKVVSAWKAKISQPALKAAQDGVIDTVAAALGGVTEHSVQVALKYVAATGGSGDSKLWGVNQRSNMFDAAFVNGMAAHAIDFDDSFPVMRGHPSSSLVPAIFAVGEHVGANGHNCLKSYVLGIEVVATLGRAVGKGHYLAGWHPTSTLGVFGATTAAALLLGADEEQLRNAWGIAASNSCGIIKNFGTMTKPMHTGSAARNGVLSAWLSMQSFTGCQTVFDDAEGILAMYGAQPGPELFNAMQKFGTPWAIIAPGLYKKSWPSCYANHKPLAGLFAIMKEHGLTGQDISHVDVGFLPGVEKPLLYMDPRTTEEAKFSIEANIGAALLDGEVSLASFEIEHLDRPAMRAAMKKVTRFDMPSETTFSGTTGYTDIVVHTADGKIERRIEATPGSLEDPMDDAHLERKFKDCTAWMPFGESGLLFDRLRSLTADQGIKTVQP | soluble
4 | MGSSHHHHHHSSGLVPRGSHMGEMLERQKKRLPSKAKYLKYTASITETGNHEADSSVIFRPHHSDVTCSNARRAESRTLPQICSCILLDHGRRTRPEVRTGMVSLHGSFKGFPCFGIRRGISHVLPGQKLRGSCDNWKKRQN | soluble
5 | MGSSHHHHHHSSGLVPRGSHMIMIHIKAIHDLTVPLETYMPIWPTNPLLEIKPVGTVARDGYKIETISGSTHSGTHIDAPAHMLENGITIDQIDPIRFIGTGYCIKTIPDGNFVRSTHLIEKWKEEYDGSIILIETGWYKKRGFTREFQYEFPGLTEDAAEFLIERNVKLVGIDTLGIEPYQDSDFHVHKKLLSKGIPFIEDLYGLDDLEEGKPYLVVALPLKMKGASGSMARVMALEMD | soluble
6 | MGSSHHHHHHSSGLVPRGSHMIMLRIPTRSYCSPSKLIKGVGLSPLKKSLLSKKIKEDIHPSLPVRTRFAPSPTGFLHLGSLRTALYNYLLARNTNGQFLLRLEDTDQKRLIEGAEENIYEILKWCNINYDETPIKQSERKLIYDKYVKILLSSGKAYRCFCSKERLNDLRHSAMELKPPSMASYDRCCAHLGEEEIKSKLAQGIPFTVRFKSPERYPTFTDLLHGQINLQPQVNFNDKRYDDLILVKSDKLPTYHLANVVDDHLMGITHVIRGEEWLPSTPKHIALYNAFGWACPKFIHIPLLTTVGDKKLSKRKGDMSISDLKRQGVLPEALINFCALFGWSPPRDLASKKHECFSMEELETIFNLNGLTKGNAKVDDKKLWFFNKHFLQKRILNPSTLRELVDDIMPSLESIYNTSTISREKVAKILLNCGGSLSRINDFHDEFYYFFEKPKYNDNDAVTKFLSKNESRHIAHLLKKLGQFQEGTDAQEVESMVETMYYENGFSRKVTYQAMRFALAGCHPGAKIAAMIDILGIKESNKRLSEGLQFLQREKK | soluble
7 | MGSSHHHHHHSSGLVPRGSHMKLNRVVVTGYGVTSPIGNTPEEFWNSLATGKIGIGGITKFDHSDFDVHNAAEIQDFPFDKYFVKKDTNRFDNYSLYALYAAQEAVNHANLDVEALNRDRFGVIVASGIGGIKEIEDQVLRLHEKGPKRVKPMTLPKALPNMASGNVAMRFGANGVCKSINTACSSSNDAIGDAFRSIKFGFQDVMLVGGTEASITPFAIAGFQALTALSTTEDPTRASIPFDKDRNGFVMGEGSGMLVLESLEHAEKRGATILAEVVGYGNTCDAYHMTSPHPEGQGAIKAIKLALEEAEISPEQVAYVNAAGTSTPANEKGESGAIVAVLGKEVPVSSTKSFTGHLLGAAGAVEAIVTIEAMRHNFVPMTAGTSEVSDYIEANVVYAQGLEKEIPYAISNTFGFGGHNAVLAFKRWENR | soluble
8 | MGSSHHHHHHSSGLVPRGSHMLDFNIEGLIPKNMEKRGELVLNEYLKEIEDVFNHRKIPENGIDDEKIKLFLKFLSMMDTDKDPKSVRIGEREARTYSKIHEELSSGFCHGIGRSGNLVDPQPKASGASIMYALTNKILESFFKQLGLNVHAIATPISTGMSISLCLSAARKKYGSNVVIYPYASHKSPIKAVSFVGMNMRLVETVLDGDRVYVPVEDIENAIKKEIELGNRPCVLSTLTFFPPRNSDDIVEIAKICENYDIPHIINGAYAIQNNYYLEKLKKAFKYRVDAVVSSSDKNLLTPIGGGLVYSTDAEFIKEISLSYPGRASATPVVNTLVSLLSMGSKNYLELVKNQKNSKKLLDELLNDLSKKTGGKFLDVESPIASCISVNSDPVEIAAKLYNLRVTGPRGIKKTDHFGNCYLGTYTHDYIVMNAAIGVRTEDIVNSVSKLEKILL | soluble
9 | MGSSHHHHHHSSGLVPRGSHMLESSGNRDIAQVVTENNKNYLVLYASQTGTAEDYAKKFSKELVAKFNLNVMCADVENYDFESLNDVPVIVSIFISTYGEGDFPDGAVNFEDFICNAEAGALSNLRYNMFGLGNSTYEFFNGAAKKAEKHLSAAGAIRLGKLGEADDGAGTTDEDYMAWKDSILEVLKDELGVEATGEESSIRQYELVVHTDIDAAKVYMGEMGRLKSYENQKPPFDAKNPFLAAVTTNRKLNQGTERHLMHLELDISDSKIRYESGDHVAVYPANDSALVNQLGKILGADLDVVMSLNNLDEESNKKHPFPCPTSYRTALTYYLDITNPPRTNVLYELAQYASEPSEQELLRKMASSSGEGKELYLSWVVEARRHILAILQDCPSLRPPIDHLCELLPRLQARYYSIASSSKVHPNSVHICAVVVEYETKAGRINKGVATNWLRAKEPAGENGGRALVPMFVRKSQFRLPFKATTPVIMVGPGTGVAPFIGFIQERAWLRQQGKEVGETLLYYGCRRSDEDYLYREELAQFHRDGALTQLNVAFSREQSHKVYVQHLLKQDREHLWKLIEGGAHIYVCGDARNMARDVQNTFYDIVAELGAMEHAQAVDYIKKLMTKGRYSLDVWS | soluble
10 | MGSSHHHHHHSSGLVPRGSHMNNIDFDSIAKMLLIKYKDFILSKFKKAAPVENIRFQNLVHTNQFAQGVLGQSQHLCTVYDNPSWHSIVLETLDLDLIYKNVDKEFAKDGHAEGENIYTDYLVKELLRYFKQDFFKWCNKPDCNHCGQNTSENMTPLGSQGPNGEESKFNCGTVEIYKCNRCGNITRFPRYNDPIKLLETRKGRCGEWCNLFTLILKSFGLDVRYVWNREDHVWCEYFSNFLNRWVHVDSCEQSFDQPYIYSINWNKKMSYCIAFGKDGVVDVSKRYILQNELPRDQIKEEDLKFLCQFITKRLRYSLNDDEIYQLACRDEQEQIELIRGKTQETKSESVSAASK | soluble
11 | MGSSHHHHHHSSGLVPRGSHMNQDPTQQLEPFLKRFLASLDLLYTQPTSQPFPNVESYATQLGSNLKRSSAIIVNGQPIIPSPQEDCKLQFQKKWLQTPLSSHQLTSYDGHLIPGTGTFVVHFSAKVRFDQSGRNRLGESADLFQENNSIVSKTNQRPIWGSWFGVDVNLVVDENVMQDGEIINSMDYRFTYVPNDSIIKV | soluble
12 | MGSSHHHHHHSSGLVPRGSHMSSEFIEAGAADRVRILSEALPYLQQFAGRTVVVKYGGAAMKQEELKEAVMRDIVFLACVGMRPVVVHGGGPEINAWLGRVGIEPQFHNGLRVTDADTMEVVEMVLVGRVNKDIVSRINTTGGRAVGFCGTDGRLVLARPHDQEGIGFVGEVNSVNSEVIEPLLERGYIPVISSVAADENGQSFNINADTVAGEIAAALNAEKLILLTDTRGILEDPKRPESLIPRLNIPQSRELIAQGIVGGGMIPKVDCCIRSLAQGVRAAHIIDGRIPHALLLEIFTDAGIGTMIVGSGYHEAHQPWQ | soluble
13 | MGSSHHHHHHSSGRENLYFQGMVDADGIYYLGPEGSFTHEAASLFKGKDLKAESTISLVFKRVYERESSIGIVPIENSLEGPVNETLDNLYNYDNIYVIGEIEKKIELVLAARSDNLSQIKRIYSHPHAFNEAREKLKELGFNEYIPVESTSKAAKIVSQDSEAAAICSNFAAKLYNLKVLITISSHNNYTRFIVLSKEMNSNGNKSMILFTVPHKPGALYKVLQVFYEYNINISMIYSRPLKSIPWQYYFYLEYEGGISNREFIEKLVKSTSVLKIKGSFSKLNNDPGF | soluble
14 | MGSSHHHHHHSSGRENLYFQGSPVEKYNFKAEVNKVMDIIVNSLYTDKDVFLRELISNASDACDKKRIILENNKLIKDAEVVTNEEIKNETEKEKTENVNESTDKKENVEEEKNDIKKLIIKIKPDKEKKTLTITDNGIGMDKSELINNLGTIAQSGTAKFLKQIEEGKADSNLIGQFGVGFYSSFLVSNRVEVYTKKEDQIYRWSSDLKGSFSVNEIKKYDQEYDDIKGSGTKIILHLKEECDEYLEDYKLKELIKKYSEFIKFPIEIWSE | soluble
15 | MGSVNGAEALKALYALQEKDLEIDRLRAEAESPPEELVALQGQVEALEERLTNLLERRAELEREYNRHSLDIEDLSAKEKQAEEEQKRAQSAREQTQYENRIQQIKDRIRELLELSTPIMEAMENLEAEIAQVEEELAALRPRLQELLEANRARVAELEAAIAAKVEERTTMAAAIPAQILKEYEAIRRARRGTGVARMAAQGQVYRCEGCNVVLPTHVAQKVVRGQVVRCPSCGRLLWKGE | soluble
16 | MGTFTATYFLKNAFWDKRGLWTATLAVAYFARCWESAGYNKAEMMKGHSKMYADRLKQLPAHTDAWKY | not soluble
17 | MGTKLPRKLEQKMQIVGEQIKLARLRRNLSIAQIAERATCSPLTVGRIEKGSPTVAIGIYARVLYALQLEDDLLHLAGADELGRRLQDLSLINRRRASKKG | not soluble
18 | MGTTLEVLRTGPLALVEDLGRPGLAHMGVTRSGAADRRSHTLANRLVANPGESATIEVTFGGFSARVCGGDVAIAVTGADTDPAVNGIPFGTNSIHHVHDGQVISLGAPHSGLRSYLAVRGGIDVTPVLGSRSYDVMSAIGPSPLRPGDVLPVGEHTDEFPELDQAPVAAIAEDVVELQVVPGPRDDWFVDPDILVRTNWLVTNRSDRVGMRLVGMPLEYRNPDRQLPSEGATRGAIQVPPNGFPVILGPDHPVTGGYPVIGVVTEEDIDKLGQVRPGQTVRLHWAYPRRPFETLESGKETAAAKFERQHMDSSTSAA | soluble
